Measured values from patent publication US20250270287A1 (KEROS THERAPEUTICS, published 2025).
Residue numbers refer to the chain shown, from its start. Blank lines part the entries; values can stand above or below the binder they belong to.

What was measured:
BMP-9 [1] = target: T1, BMP-9 (UniProt Q9UK05 320-429); assay: SPR (Biacore 8K), Fc protein captured on anti-human IgG, ligand injected
T1 construct: also called bone morphogenetic protein 9
T1 sequence (looked up): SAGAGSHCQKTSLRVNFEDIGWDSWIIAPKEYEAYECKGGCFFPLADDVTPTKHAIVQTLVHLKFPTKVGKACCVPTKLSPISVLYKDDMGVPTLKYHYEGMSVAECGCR
Procedure: (§1) The Cytiva Biacore 8k was used to measure the kinetics of the interactions between the ActRII- and chimera-Fc proteins and Activin A/Activin B/growth differentiation factor 8 (GDF-8)/GDF-11/BMP-9/BMP-10. Series S CM4 Sensor Chips were immobilized with anti-human capture antibody using the reagents and protocol in the Biacore Human Antibody Capture Kit (GE Life Sciences). Briefly, anti-human IgG was diluted to 25 μg/mL in immobilization buffer. The carboxylated surface of the sensor was activated by injecting a mixture of EDC and NHS. The anti-human IgG was injected into the activated sensor chip flow cells at 10 μL/min for a total of 7 minutes until the chip reached an immobilization level of 3000 resonance units (RU). Ethanolamine was injected to deactivate the sensor surfaces. The chip has 8 flow cells to be used for binding analysis, each with an in-line reference surface to subtract instrument noise and non-specific binding to the sensor chip. The ActRII- and chimera-Fc proteins were captured in their own flow cell to allow for a maximum analyte binding response of 20-30 RU. This was done by injecting 10-20 μL of the ActRII- and chimera-Fc proteins into the flow cells at a concentration of 2 μg/mL until 60-90 RU was captured. Ligand at a single concentration was injected at […] for 60 seconds and then allowed to dissociate under buffer flow for no less than 5 minutes. After the cycle completed, captured protein was stripped from the chip with an injection of 3 M magnesium chloride, the regeneration buffer provided with the Biacore Human Antibody Capture Kit. Each ligand was injected in a concentration series, including a buffer only 0 nM concentration to serve as a double reference for subtracting out instrument noise. The data were analyzed using the Biacore Insight Evaluation Software.

Activin A [2] = target: T2, Activin A (UniProt P08476 311-426); assay: as above
T2 sequence (looked up): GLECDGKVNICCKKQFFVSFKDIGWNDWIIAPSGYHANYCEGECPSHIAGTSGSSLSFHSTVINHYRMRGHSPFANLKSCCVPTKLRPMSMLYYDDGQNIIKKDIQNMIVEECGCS
Procedure: as §1

Activin B [3] = target: T3, Activin B (UniProt P09529 293-407); assay: as above
T3 sequence (looked up): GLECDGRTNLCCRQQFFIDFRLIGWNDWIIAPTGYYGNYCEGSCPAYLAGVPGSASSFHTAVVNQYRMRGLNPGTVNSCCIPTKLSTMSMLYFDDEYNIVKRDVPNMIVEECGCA
Procedure: as §1

GDF-11 [4] = target: T4, GDF-11 (UniProt O95390 299-407); assay: as above
T4 construct: also called growth and differentiation factor 11
T4 sequence (looked up): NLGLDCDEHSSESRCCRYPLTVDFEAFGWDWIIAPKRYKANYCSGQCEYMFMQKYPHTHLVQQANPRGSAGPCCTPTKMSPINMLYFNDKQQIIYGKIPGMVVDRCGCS
Procedure: as §1

BMP-10 = target: T5, BMP-10 (UniProt O95393 317-424); assay: as above
T5 sequence (looked up): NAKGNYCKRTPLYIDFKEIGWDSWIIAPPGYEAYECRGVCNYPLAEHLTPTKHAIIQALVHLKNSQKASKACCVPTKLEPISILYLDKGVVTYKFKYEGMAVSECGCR
Procedure: as §1

[5] = target: T6, growth differentiation factor 8 (GDF-8) (UniProt O14793 267-375); assay: as above
T6 construct: also called myostatin
T6 sequence (looked up): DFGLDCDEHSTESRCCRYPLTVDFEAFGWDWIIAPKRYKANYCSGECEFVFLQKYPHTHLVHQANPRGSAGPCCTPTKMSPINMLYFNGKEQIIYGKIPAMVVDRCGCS
Procedure: as §1

BMP-9 [6] = target: T1, BMP-9; assay: cell-based or functional assay
Activin A [7] = target: T2, Activin A; assay: cell-based or functional assay
Activin B [8] = target: T3, Activin B; assay: cell-based or functional assay
GDF-11 [9] = target: T4, GDF-11; assay: cell-based or functional assay

B1: ActRIIB-A8 (SEQ ID NO: 126) chimera-Fc protein (Fc fusion)
chain: GRGEAETRECIYYNANWELERTNQSGLERCEGEQDKRLHCYASWRNSSGTIELVKKGCWLDDFNCYDRQECVATEENPQVYFCCCEGNFCNERFTHLPEMEVTQPTS
notes: Tested as chimera-Fc protein; not shown: linker (if any) and Fc domain
Kd (BMP-9 [1]): 74 pM
Kd (Activin A [2]): 44.2 pM
Kd (Activin B [3]): < 1 pM
Kd (GDF-11 [4]): < 1 pM
Kd (BMP-10): 29.2 pM
Kd [5]: 4.23 pM
IC50, BRE-luciferase reporter in C2C12 cells (BMP-9 [6]): 3.6 µg/mL
IC50, SBE-luciferase reporter in HEK293 cells (Activin A [7]): 0.23 µg/mL
IC50, SBE-luciferase reporter in HEK293 cells (Activin B [8]): 0.052 µg/mL
IC50, SBE-luciferase reporter in HEK293 cells (GDF-11 [9]): 0.13 µg/mL

B2: ActRIIB-A1 (SEQ ID NO: 120) chimera-Fc protein (Fc fusion, not shown: a dimerising Fc or GST)
chain: GAILGRSETQECIYYNANWELERTNQSGLERCEGEQDKRLHCYASWRNSSGTIELVKKGCWLDDFNCYDRQECVATEENPQVYFCCCEGNFCNERFTHLPEAGGPEVTYEPPPTAPT
IC50, BRE-luciferase reporter in C2C12 cells (BMP-9 [6]): 0.14 µg/mL
IC50, SBE-luciferase reporter in HEK293 cells (Activin A [7]): 0.075 µg/mL
IC50, SBE-luciferase reporter in HEK293 cells (Activin B [8]): 0.072 µg/mL
IC50, SBE-luciferase reporter in HEK293 cells (GDF-11 [9]): 0.14 µg/mL

B3: ActRIIB (SEQ ID NO: 31) Fc protein (Fc fusion)
chain: GRGEAETRECIYYNANWELERTNQSGLERCEGEQDKRLHCYASWRNSSGTIELVKKGCWLDDFNCYDRQECVATEENPQVYFCCCEGNFCNERFTHLPEAGGPEVTYEPPPTAPT
notes: also called ActRII-Fc; wild-type extracellular ActRIIB; not shown: linker (if any) and Fc domain
Kd (Activin A [2]): 10.6 pM
Kd (Activin B [3]): < 1 pM

B6: ActRIIB-A5 (SEQ ID NO: 123) chimera-Fc protein (Fc fusion)
chain: B3 chain with F63I, Q69T, E70D
notes: as for B1
Kd (BMP-9 [1]): 143 pM
Kd (Activin A [2]): 22.8 pM
Kd (Activin B [3]): 4.91 pM
Kd (GDF-11 [4]): 5.66 pM
Kd (BMP-10): 15.2 pM
Kd [5]: 16.5 pM
IC50, BRE-luciferase reporter in C2C12 cells (BMP-9 [6]): 0.4 µg/mL
IC50, SBE-luciferase reporter in HEK293 cells (Activin A [7]): 0.057 µg/mL
IC50, SBE-luciferase reporter in HEK293 cells (Activin B [8]): 0.072 µg/mL
IC50, SBE-luciferase reporter in HEK293 cells (GDF-11 [9]): 0.13 µg/mL

Other lines, results leading:

Kd (BMP-9 [1]): 9.62 pM
Kd (Activin A [2]): 10.4 pM
Kd (Activin B [3]): 1 pM
Kd (GDF-11 [4]): < 1 pM
Kd (BMP-10): 9.69 pM
Kd [5]: 28.8 pM
IC50, BRE-luciferase reporter in C2C12 cells (BMP-9 [6]): 0.23 µg/mL
IC50, SBE-luciferase reporter in HEK293 cells (Activin A [7]): 0.089 µg/mL
IC50, SBE-luciferase reporter in HEK293 cells (Activin B [8]): 0.14 µg/mL
IC50, SBE-luciferase reporter in HEK293 cells (GDF-11 [9]): 0.25 µg/mL
B4: ActRIIB-A6 (SEQ ID NO: 124) chimera-Fc protein (Fc fusion)
chain: B3 chain with E75K, E76D, N77S, Q79E
notes: as for B1

Kd (BMP-9 [1]): 20.2 pM
Kd (Activin A [2]): < 1 pM
Kd (Activin B [3]): < 1 pM
Kd (GDF-11 [4]): < 1 pM
Kd (BMP-10): < 1 pM
Kd [5]: 3.46 pM
IC50, BRE-luciferase reporter in C2C12 cells (BMP-9 [6]): 0.032 µg/mL
IC50, SBE-luciferase reporter in HEK293 cells (Activin A [7]): 0.067 µg/mL
IC50, SBE-luciferase reporter in HEK293 cells (Activin B [8]): 0.12 µg/mL
IC50, SBE-luciferase reporter in HEK293 cells (GDF-11 [9]): 0.15 µg/mL
B5: ActRIIB-B7 (SEQ ID NO: 115) chimera-Fc protein (Fc fusion)
chain: B3 chain with R93K, T95S, H96Y, L97F
notes: as for B1

Kd (BMP-9 [1]): 12.3 pM
Kd (Activin A [2]): 16.5 pM
Kd (Activin B [3]): < 1 pM
Kd (GDF-11 [4]): < 1 pM
Kd (BMP-10): 15.9 pM
Kd [5]: < 1 pM
IC50, BRE-luciferase reporter in C2C12 cells (BMP-9 [6]): 0.1 µg/mL
IC50, SBE-luciferase reporter in HEK293 cells (Activin A [7]): 0.056 µg/mL
IC50, SBE-luciferase reporter in HEK293 cells (Activin B [8]): 0.075 µg/mL
IC50, SBE-luciferase reporter in HEK293 cells (GDF-11 [9]): 0.15 µg/mL
B7: ActRIIB-A3 (SEQ ID NO: 122) chimera-Fc protein (Fc fusion)
chain: B3 chain with E31Y, E33D, Q34K
notes: as for B1
